3 substances from patent US20020156245A1 can be followed below.

The target in the test is human Ptch (SEQ ID NO:4) (human) (UniProt Q13635). The experiment in a line: Scatchard analysis of displacement of 125I-Shh from 293 cells expressing Ptch.
For “Dhh (SEQ ID NO:13) (from UniProt Q61488 23-198) (ligand)”, the Kd is 2.6 nM.
Regarding “Shh (SEQ ID NO:14), 19 kD amino terminal fragment of murine Shh (from UniProt Q62226 25-198) (ligand)”, the Kd turned out to be 1 nM.
Then “Ihh (SEQ ID NO:29) (from UniProt P97812 28-202) (ligand)”, with 1 nM.
